Data taken from the supplement of paper PMC10567573.

B1: KLHL12 (parent)
chain: SMTTPRCYVGATVLRGRLYAIAGY
B2: ANKRD40 (parent)
chain: SLRENDFIEIELDRQELTYQELLR

Variants of: B1
Assay: protein stability index of a GFP-peptide fusion (GPS, HEK-293T) (PSI 1-6); higher = more stable
Settings: c terminus: a fixed tail appended
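Also: lentivirally expressed fusions sorted by FACS into six bins by GFP to DsRed ratio, PSI derived from sequencing read proportions per bin multiplied by bin number.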

Variant	protein stability index
T4V	2.65
T4S	2.3
T4R	2.16
T4P	1.93
T4K	2.69
T4I	2.44
T4F	2.12
R6P	1.83
R6N	2.26
R6I	1.55
R6K	2.04
R6S	2.42
R6F	2.04
R6D	2.56
R6Q	2.54
R6L	1.18
R6T	1.53
R6G	1.27
R6A	1.73
Y8T	2.12
Y8D	1.71
Y8A	2
Y8W	1.82
Y8E	1.06
Y8M	1.57
Y8F	2.98

Variant	protein stability index
Y8H	1.74
Y8S	2.77
Y8R	1.21
Y8P	1.71
Y8I	3.73
Y8L	2.48
Y8K	2.88
Y8Q	2.18
Y8N	1.5
C7S	3.15
C7A	1.32
C7G	3.82
C7P	1.06
C7Q	1.71
C7N	1.62
C7L	3.82
C7H	1.16
C7R	2.43
C7F	3.95
C7T	2.16
C7D	2.41
C7V	2.13
C7E	1.47
C7M	4.32
C7K	2.18
C7I	3.84

Variant	protein stability index
M2V	1.97
M2F	3.06
M2L	2.64
M2T	2.22
M2A	2.19
M2Y	2.77
M2R	2.35
M2P	1.33
M2H	1.93
M2G	2.78
M2D	2.48
M2E	1.68
M2Q	1.48
M2S	3.02
M2I	1.65
M2N	2.96
S1R	3.81
S1Q	1.39
S1F	2.24
S1L	3.32
S1K	1.92
S1I	2.52
S1P	3.62
S1M	1.89
S1C	3.04
S1E	1.66

Variant	protein stability index
S1G	2.39
S1D	2.24
S1A	1.85
S1H	1.51
S1N	1.9
P5Y	2.19
P5M	2.98
P5S	3.27
P5T	2.22
P5Q	2.71
P5H	4.85
P5I	1.79
P5R	4.23
P5W	2.99
P5N	2.22
G10I	2.94
G10A	1.29
G10M	2.75
G10H	1.85
G10D	1.1
G10N	1.95
G10C	2.8
G10L	2.13
G10E	3.01
G10F	1.36
G10K	2.11

Variants of: B2
Assay: as above
Settings: c terminus: a fixed tail appended

Variant	protein stability index
R24I	2.35
R24N	3.49
R24S	2.92
R24D	3.17
R24V	2.71
R24M	2.52
R24Q	3.04
R24E	3.88
R24F	2.64
R24K	3.12
R24A	3.23
R24Y	2.43
R24L	3.09
R24W	2.26
R24H	2.77
R24C	2.72
R24T	3.06
R24P	3.06
R24G	3.27
L22D	4.54
L22C	3.58

Variant	protein stability index
L22R	3.74
L22S	3.8
L22F	3.14
L22K	3.97
L22V	2.77
L22G	3.57
L22P	3.56
L22Q	4.02
L22H	3.42
L22I	2.53
L22T	3.45
L22M	3.34
L22A	3.8
L22W	2.86
L22E	3.66
L22N	3.92
L22Y	2.9
L23I	2.76
L23V	3.53
L23C	2.97
L23Y	3.43

Variant	protein stability index
L23E	3.99
L23R	3.75
L23A	3.73
L23M	3.16
L23K	3.85
L23G	3.48
L23T	3.59
L23Q	3.94
L23N	4.05
L23H	3.6
L23F	2.54
L23D	4.25
L23P	3.58
L23S	4
L23W	2.04
E21Y	1.77
E21R	2.62
E21S	2.71
E21W	1.85
E21V	1.99
E21T	2.09
